Key:
[1] = target: T1, wild type B. subtilis glutamine PRPP amidotransferase (Bacillus subtilis, UniProt P00497); assay: Inhibition of enzyme activity by nucleotides (glutamate formation assay), wild type; type: biochemical; conditions: read-out: Km PRPP; wild type enzyme; data not shown
T1 construct: Enzymes of the B. subtilis class are synthesized with an NH2 terminal propeptide and an Fe—S center; made in house; host or cells: E. coli strain TX158 (purF) with plasmid pGZ1
T1 sequence (P00497 12-476): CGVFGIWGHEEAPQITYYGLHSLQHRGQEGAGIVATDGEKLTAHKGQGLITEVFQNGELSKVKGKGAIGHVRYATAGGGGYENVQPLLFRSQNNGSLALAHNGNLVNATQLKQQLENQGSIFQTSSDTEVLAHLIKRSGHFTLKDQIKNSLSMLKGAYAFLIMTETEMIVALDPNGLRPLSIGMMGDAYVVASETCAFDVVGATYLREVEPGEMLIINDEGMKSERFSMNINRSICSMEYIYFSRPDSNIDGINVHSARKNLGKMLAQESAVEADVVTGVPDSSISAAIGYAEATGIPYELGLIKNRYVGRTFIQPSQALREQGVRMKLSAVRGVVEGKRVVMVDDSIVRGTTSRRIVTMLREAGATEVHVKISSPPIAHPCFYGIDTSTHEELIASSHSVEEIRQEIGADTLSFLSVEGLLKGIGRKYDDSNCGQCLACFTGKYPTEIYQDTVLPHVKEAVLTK
Description: Enzyme activity was assayed by measuring the initial rate of formation of the product glutamate. […] Incubation was at 37° C. for 6 min. […] Reactions were quenched in a boiling water bath for 2 min, and glutamate was determined by the glutamate dehydrogenase method.
Inhibition by nucleotides was determined by the standard assay to which varied concentrations of nucleotide were added. Synergistic inhibition was determined by varying the concentration of one nucleotide in the presence of a fixed concentration of a second nucleotide. Relative activity (see FIG. 1) refers to the enzyme activity at a given concentration of the varied nucleotide relative to that in the absence of the varied nucleotide. I0.5 values were calculated from plots of relative activity versus varied nucleotide concentration.

[2] = test system: O=P(O)(O)OC[C@H]1OC(OP(=O)(O)OP(=O)(O)O)[C@H](O)[C@@H]1O; assay: purified protein, by the assay type; conditions: other: S347A enzyme; data not shown; pH 8.0; 37.0 °C
[3] = Specific activity of purified enzyme; type: biochemical, Bacillus subtilis; conditions: typical value
Description: For enzyme purification, all buffers were sparged with nitrogen gas prior to use in order to minimize oxidation of the enzyme's Fe-S cluster. All steps were carried out at 4° C. Cells were resuspended in 4 mL/gram of buffer A [50 mM Tris-HCl (pH 8.0), 10 mM MgCl2, 0.1 mM EDTA, 5 mM DTT, and 2 mM AMP] containing 1 mM PMSF, and were disrupted by two passes through a French Press. The cell extract was obtained by centrifugation for 1 h at 27,000 g. Protamine sulfate (5 mg per gram of cells) was added to the extract to precipitate DNA. After centrifugation at 27,000 g for 30 min, the supernatant was applied to a 1.9×20 cm column of DEAE-Sepharose equilibrated with buffer A. The column was washed with 300 mL of buffer A and 300 mL of buffer A plus 0.1 M KCl and eluted with a linear salt gradient of 600 mL from 0.1 to 1.0 M KCl in buffer A. Brown-colored fractions containing the enzyme were precipitated by addition of ammonium sulfate to 40% saturation. After centrifugation, enzyme in the brown pellet was recovered by extraction twice with 30% saturated ammonium sulfate. […]
Enzyme activity was assayed by measuring the initial rate of formation of the product glutamate. […] Reactions were quenched in a boiling water bath for 2 min, and glutamate was determined by the glutamate dehydrogenase method. […]

Molecule: O=P(O)(O)OC[C@H]1OC(OP(=O)(O)OP(=O)(O)O)[C@H](O)[C@@H]1O (stereo partly drawn) [PRPP, phosphoribosylpyrophosphate]
- Km [1]: 75 to 81 µM

Molecule: glutamine PRPP amidotransferase S347A mutant enzyme (Bacillus subtilis subsp. subtilis str. 168; S358A)
- Km [2]: 182 µM

B1: wild type: wild type B. subtilis glutamine PRPP amidotransferase produced from plasmid pGZ1 (protein, UniProt P00497 12-476, looked up)
Amidophosphoribosyltransferase: CGVFGIWGHEEAPQITYYGLHSLQHRGQEGAGIVATDGEKLTAHKGQGLITEVFQNGELSKVKGKGAIGHVRYATAGGGGYENVQPLLFRSQNNGSLALAHNGNLVNATQLKQQLENQGSIFQTSSDTEVLAHLIKRSGHFTLKDQIKNSLSMLKGAYAFLIMTETEMIVALDPNGLRPLSIGMMGDAYVVASETCAFDVVGATYLREVEPGEMLIINDEGMKSERFSMNINRSICSMEYIYFSRPDSNIDGINVHSARKNLGKMLAQESAVEADVVTGVPDSSISAAIGYAEATGIPYELGLIKNRYVGRTFIQPSQALREQGVRMKLSAVRGVVEGKRVVMVDDSIVRGTTSRRIVTMLREAGATEVHVKISSPPIAHPCFYGIDTSTHEELIASSHSVEEIRQEIGADTLSFLSVEGLLKGIGRKYDDSNCGQCLACFTGKYPTEIYQDTVLPHVKEAVLTK
- Enzyme specific activity [3]: 25 nmol/min/mg
